# Data published in paper PMC9700739.
# What was measured:
# [1] = target: H77 E2E1-I53-50A (hepatitis C virus, strain H77); experiment: non-reducing SDS-PAGE; purified protein on a non-reducing gel; one band larger than 250 kDa, disulfide-bonded trimer
# [2] = target: AMS0232 E2E1-I53-50A (hepatitis C virus, isolate AMS0232 (genotype 1a)); experiment: SEC; Strep-Tactin-purified E2E1-I53-50A alone on Superdex 200 Increase 10/300 GL or Superose 6 Increase 10/300 GL; TBS/5% glycerol; elutes as a trimer
# [3] = target: AMS0232 E2E1-I53-50A (hepatitis C virus, isolate AMS0232 (genotype 1a)); experiment: non-reducing SDS-PAGE; purified protein on a non-reducing gel; one band larger than 250 kDa, disulfide-bonded trimer
# [4] = target: UKNP4.1.1 E2E1-I53-50A (hepatitis C virus, strain UKNP4.1.1); experiment: as above
# [5] = target: UKNP5.2.1 E2E1-I53-50A (hepatitis C virus, strain UKNP5.2.1); experiment: as above
# [6] = target: UKNP2.2.1 E2E1-I53-50A (hepatitis C virus, strain UKNP2.2.1 / UKNP2.1.1); experiment: as above
# [7] = target: AMS2b E2E1-I53-50A (hepatitis C virus, strain AMS2b); experiment: as above
# [8] = target: UKNP6.1.2 E2E1-I53-50A (hepatitis C virus, strain UKNP6.1.2); experiment: as above
substance,measurement,setting,value
H77 E2E1-I53-50A (complex),stoichiometry N,[1],3
AMS0232 E2E1-I53-50A (complex),stoichiometry N,[2],3
same,stoichiometry N,[3],3
UKNP4.1.1 E2E1-I53-50A (complex),stoichiometry N,[4],3
UKNP5.2.1 E2E1-I53-50A (complex),stoichiometry N,[5],3
UKNP2.2.1 E2E1-I53-50A,stoichiometry N,[6],3
AMS2b E2E1-I53-50A (complex),stoichiometry N,[7],3
UKNP6.1.2 E2E1-I53-50A (complex),stoichiometry N,[8],3
